Experiment [1] addresses T1, SIRPα V1-his (ACRO, Cat #SIA-H5225) (human, UniProt P78324 31-370).
T1 construct: not shown: His tag
Description: SPR (Biacore), antibody captured by anti-Fc on CM5, 50 nM SIRPα V1-his injected, 1:1 model. On the procedure:
Using the Biacore analysis system, activators were prepared by mixing 400 mM EDC and 100 mM NHS and activated with a CM5 sensor chip at a flow rate of 10 μL/min for 420 s. Anti-Fc antibody at 30 μg/mL dissolved in 10 mM NaAc (pH 4.5) was injected into the channel at a flow rate of 10 μL/min and then closed with 1 M ethanolamine-HCl at a flow rate of 10 μL/min for 420 s. […] All experimental data were fitted using a 1:1 binding model.
Background: SPR reads the build-up and loss of mass on a sensor chip optically.

Experiment [2] concerns the target T1, SIRPα V1-his (ACRO, Cat #SIA-H5225). As to the kind of experiment: competition ELISA: coated SIRPα-V1-his, antibody titrated against biotin-CD47, streptavidin-HRP (panel SIRPα-V1-CD47). On the procedure:
100 μL of 1 μg/mL of recombinant SIRPα-V1-his and SIRPα-V2-his were coated overnight at 4° C. in Maxisorp ELISA 96-well plates. […] After washing, each well was added with 0.2 μg Streptavidin-HRP, substrate TMB, and read by an enzyme marker.
A general note: ELISA stands for enzyme-linked immunosorbent assay.

Experiment [3] deals with T2, SIRPα-V1 on 293T-SIRPα-V1 cells (human, UniProt P78324 31-504).
T2 construct: Stably transfected cell line
T2 sequence (P78324 31-504): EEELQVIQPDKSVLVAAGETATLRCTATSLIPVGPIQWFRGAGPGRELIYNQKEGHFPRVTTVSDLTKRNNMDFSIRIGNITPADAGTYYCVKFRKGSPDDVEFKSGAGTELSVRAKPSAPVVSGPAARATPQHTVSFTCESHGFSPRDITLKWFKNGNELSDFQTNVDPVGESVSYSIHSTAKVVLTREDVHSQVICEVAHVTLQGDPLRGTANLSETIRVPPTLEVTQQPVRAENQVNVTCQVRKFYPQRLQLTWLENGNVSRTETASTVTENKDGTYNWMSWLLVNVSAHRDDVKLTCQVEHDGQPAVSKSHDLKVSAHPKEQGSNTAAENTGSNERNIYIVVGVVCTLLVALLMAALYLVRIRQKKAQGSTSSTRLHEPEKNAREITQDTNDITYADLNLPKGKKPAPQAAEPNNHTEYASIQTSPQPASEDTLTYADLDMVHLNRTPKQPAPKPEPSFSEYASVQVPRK
As to the kind of experiment: FACS titration on 293T-SIRPα-V1 cells, goat anti-hIgG-AF488 (panel SIRPα-V1). On the procedure:
After washing, cells were stained by 0.2 μg of goat anti-hIgG-AF488 at 4° C. for 30 min, resuspended in […] of DPBS/1% FBS, and analyzed by FlowJo V10 and GraphPad Prism6 software.

The target in experiment [4] is T2, SIRPα-V1 on 293T-SIRPα-V1 cells. As to the kind of experiment: competition FACS: 293T-SIRPα-V1 cells, antibody titrated against CD47-FITC, % of blocking (panel SIRPα-V1-CD47). On the procedure:
After washing, cells were analyzed by utilizing FlowJo V10 and GraphPad Prism6 software.

For experiment [5], the target named is T1, SIRPα V1-his (ACRO, Cat #SIA-H5225). As to the kind of experiment: BLI (ForteBio Octet RED 96): SIRPα V1-his on Ni-NTA biosensor, antibody in a 1:2 series of 7 concentrations (row SIRPα-V1). On the procedure: 5 μg/mL SIRPα V1-his and SIRPα V2-his was loaded to a Ni-NTA biosensor for 600 s, respectively. […] The binding time was 200 s and the dissociation time was 600 s. The data were fitted to calculate the affinity.
A general note: Biolayer interferometry detects binding as a change in optical thickness at a sensor tip.

For experiment [6] the target is unchanged. Description: ELISA: coated SIRPα-V1-his, antibody titrated, goat anti-hIgG Fc HRP (panel SIRPα-V1). On the procedure: 100 μL of 1 μg/mL of SIRPα-V1-his, SIRPα-V2-his and SIRPα-V8-his (Sino Biological, Cat #30015-H08H) were coated overnight at 4° C. in Maxisorp ELISA 96-well plates. […] After washing, 100 μL of 1:5000 dilution of goat Anti-hIgG Fc HRP (Invitrogen, Cat #A18823) was added to each well and incubated for 1 h. TMB substrate was used for color development and enzyme marker readings.

In general, Kd refers to the concentration at which binding is half-saturated. A higher Kd goes with a looser complex. In general, koff refers to the first-order rate constant of dissociation. A lower koff goes with a long-lived complex. One may read the kon as the rate constant with which the complex forms. By EC50 (read off the curve) is commonly meant the concentration needed to bring the measured effect to its halfway point.

T1 sequence (P78324 31-370 limits assumed): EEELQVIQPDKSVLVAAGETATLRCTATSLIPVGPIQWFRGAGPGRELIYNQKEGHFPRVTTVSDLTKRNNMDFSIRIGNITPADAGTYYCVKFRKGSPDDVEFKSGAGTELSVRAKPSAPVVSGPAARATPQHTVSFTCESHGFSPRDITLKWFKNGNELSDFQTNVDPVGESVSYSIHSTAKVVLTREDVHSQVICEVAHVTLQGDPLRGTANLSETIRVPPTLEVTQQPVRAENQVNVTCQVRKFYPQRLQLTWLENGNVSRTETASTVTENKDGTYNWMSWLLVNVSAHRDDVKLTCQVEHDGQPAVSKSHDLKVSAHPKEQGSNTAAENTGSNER

B1: Z6 (antibody, IgG1, V domains shown)
VH: QVQLQESGPGLVKPSQTLSLTCTVSGFSLTGYGVNWIRQPPGKGLEWIGIIWGDGSTDYNSALKSRVTISKDTSKNQVFLKLSSVTAADTAVYYCARAGKMDYWGQGTTVTVSS
VL: DIVLTQSPASLAVSPGQRATITCRASESVDSYGNSFMHWYQQKPGQPPKPLIYLASNLESGVPARFSGSGSRTDFTLTINPVEANDAANYYCQQNNEYPWTFGGGTKVEIK
notes: also called humanized variant Z6
In experiment [1], B1 displayed a Kd of 2.34 nM, a koff of 0.00165 s⁻¹ and an association rate constant (kon) of 708000 M⁻¹ s⁻¹.

B2: Z9 (antibody, IgG1, V domains shown)
VH: QVQLQESGPGLVKPSQTLSLTCTVSGFSLTGYGVNWIRQPPGKGLEWIGIIWGDGSTDYNSALKSRVTISKDTSKNQVFLKLSSVTADDTARYYCARAGKMDYWGQGTTVTVSS
VL: DIVLTQSPASLAVSPGQRATITCRASESVDSYGNSFMHWYQQKPGQPPKPLIYLASNLESGVPARFSGSGSRTDFTLTINPVEANDAANYYCQQNNEYPWTFGGGTKVEIK
notes: also called humanized variant Z9
On to B2, for which, in experiment [1], binding was put at a Kd of 2.27 nM, the koff was 0.0016 s⁻¹ and the on-rate constant (kon) stood at 708000 M⁻¹ s⁻¹.

B3: Z7 (antibody, IgG1, V domains shown)
VH: QVQLQESGPGLVKPSQTLSLTCTVSGFSLTGYGVNWIRQPPGKGLEWIGIIWGDGSTDYNSALKSRVTISKDTSKNQVFLKLSSVTADDTARYYCARAGKMDYWGQGTTVTVSS
VL: DIVLTQSPASLAVSPGQRATITCRASESVDSYGNSFMHWYQQKPGQPPKPLIYLASNLESGVPARFSGSGSGTDFTLTINPVEANDAANYYCQQNNEYPWTFGGGTKVEIK
notes: also called humanized variant Z7
In experiment [1], B3 displayed a dissociation constant (Kd) of 2.01 nM, a koff of 0.00151 s⁻¹ and an on-rate constant (kon) of 754000 M⁻¹ s⁻¹.

B4: Z8 (antibody, IgG1, V domains shown)
VH: QVQLQESGPGLVKPSQTLSLTCTVSGFSLTGYGVNWIRQPPGKGLEWIGIIWGDGSTDYNSALKSRVTISKDTSKNQVFLKLSSVTADDTARYYCARAGKMDYWGQGTTVTVSS
VL: DIVLTQSPASLAVSPGQRATITCRASESVDSYGNSFMHWYQQKPGQPPKLLIYLASNLESGVPARFSGSGSRTDFTLTINPVEANDAANYYCQQNNEYPWTFGGGTKVEIK
notes: also called humanized variant Z8
Regarding B4, in experiment [1], binding was characterised by a dissociation constant (Kd) of 25.3 nM, the off-rate (koff) is 0.0194 s⁻¹ and the kon is 768000 M⁻¹ s⁻¹.

B5: Z4 (antibody, IgG1, V domains shown)
VH: QVQLQESGPGLVKPSQTLSLTCTVSGFSLTGYGVNWIRQPPGKGLEWIGIIWGDGSTDYNSALKSRVTISKDTSKNQVFLKLSSVTAADTAVYYCARAGKMDYWGQGTTVTVSS
VL: DIVLTQSPASLAVSPGQRATITCRASESVDSYGNSFMHWYQQKPGQPPKPLIYLASNLESGVPARFSGSGSGTDFTLTINPVEANDAANYYCQQNNEYPWTFGGGTKVEIK
notes: also called humanized variant Z4
On to B5, for which, in experiment [1], the affinity, expressed as Kd, was 1.98 nM; the off-rate constant (koff) is 0.00154 s⁻¹; the on-rate constant (kon) amounted to 775000 M⁻¹ s⁻¹.

B6: Z1 (antibody, IgG1, V domains shown)
VH: QVQLQESGPGLVKPSQTLSLTCTVSGFSLTGYGVNWIRQPPGKGLEWIGIIWGDGSTDYNSALKSRVTISVDTSKNQVFLKLSSVTAADTAVYYCARAGKMDYWGQGTTVTVSS
VL: DIVLTQSPASLAVSPGQRATITCRASESVDSYGNSFMHWYQQKPGQPPKPLIYLASNLESGVPARFSGSGSGTDFTLTINPVEANDAANYYCQQNNEYPWTFGGGTKVEIK
notes: also called humanized variant Z1
As for B6, in experiment [1], the Kd worked out at 3.61 nM, the koff came to 0.00269 s⁻¹ and the on-rate constant (kon) turned out to be 744000 M⁻¹ s⁻¹.

B7: Z5 (antibody, IgG1, V domains shown)
VH: QVQLQESGPGLVKPSQTLSLTCTVSGFSLTGYGVNWIRQPPGKGLEWIGIIWGDGSTDYNSALKSRVTISKDTSKNQVFLKLSSVTAADTAVYYCARAGKMDYWGQGTTVTVSS
VL: DIVLTQSPASLAVSPGQRATITCRASESVDSYGNSFMHWYQQKPGQPPKLLIYLASNLESGVPARFSGSGSRTDFTLTINPVEANDAANYYCQQNNEYPWTFGGGTKVEIK
notes: also called humanized variant Z5
Consider B7, for which, in experiment [1], binding was put at a Kd of 27.8 nM, the koff was determined as 0.0208 s⁻¹ and the on-rate constant (kon) was 747000 M⁻¹ s⁻¹.

B8: Z3 (antibody, IgG1, V domains shown)
VH: QVQLQESGPGLVKPSQTLSLTCTVSGFSLTGYGVNWIRQPPGKGLEWIGIIWGDGSTDYNSALKSRVTISVDTSKNQVFLKLSSVTAADTAVYYCARAGKMDYWGQGTTVTVSS
VL: DIVLTQSPASLAVSPGQRATITCRASESVDSYGNSFMHWYQQKPGQPPKPLIYLASNLESGVPARFSGSGSRTDFTLTINPVEANDAANYYCQQNNEYPWTFGGGTKVEIK
notes: also called humanized variant Z3
In the case of B8, in experiment [1], the Kd came to 4.17 nM, the dissociation rate constant (koff) amounted to 0.00292 s⁻¹ and the association rate constant (kon) came out at 699000 M⁻¹ s⁻¹.

B9: BI 765063 (antibody, V domains shown)
VH: EVQLVQSGAEVKKPGESLRISCKASGYSFTSYWVHWVRQMPGKGLEWMGNIDPSDSDTHYSPSFQGHVTLSVDKSISTAYLQLSSLKASDTAMYYCVRGGTGTLAYFAYWGQGTLVTVSS
VL: DVVMTQSPLSLPVTLGQPASISCRSSQSLVHSYGNTYLYWFQQRPGQSPRLLIYRVSNRFSGVPDRFSGSGSGTDFTLKISRVEAEDVGVYYCFQGTHVPYTFGGGTKVEIKR
With B9, the “IC50 (read off the curve)” value is roughly 4 nM in experiment [2] and roughly 0.3 nM in experiment [4]. Besides, the entries for the concentration giving a half-maximal response (EC50 (read off the curve)) in experiment [3] and in experiment [6] were roughly 1 nM and roughly 0.05 nM, respectively. The same molecule had a Kd in experiment [5] of less than 0.001 nM. Moreover, in experiment [5], the koff is less than 1e-07 s⁻¹.

The values above are taken from US20240368301A1 (HANGZHOU JIUYUAN GENE ENGINEERING, published 2024).
